Experimental data published in publication PMC11044963, “Probing the CRL4^DCAF12 interactions with MAGEA3 and CCT5 di-Glu C-terminal degrons” (PNAS Nexus, 2024).
Where no end group is shown, it is not given here. The star is where a group is joined. FITC = O=C1OC2(c3ccc(O)cc3Oc3cc(O)ccc32)c2ccc(NC(=S)*)cc21

B1: FITC-labeled CCT5 C-terminal degron peptide (peptide)
peptide: {FITC}-IRKPGESEE
notes: nine C-terminal residues of T-complex protein 1 subunit epsilon (CCT5); also called CCT5 peptide
B2: unlabeled CCT5 C-terminal degron peptide (peptide)
peptide: IRKPGESEE
notes: as for B1
B3: unlabeled MAGEA3 C-terminal degron peptide (peptide)
peptide: LHEWVLREGEE
notes: 11 C-terminal residues of melanoma-associated antigen 3 (MAGEA3); also called MAGEA3 peptide
B4: FITC-labeled MAGEA3 C-terminal degron peptide (peptide)
peptide: {FITC}-LHEWVLREGEE
notes: as for B3

Legend:
Settings in all cases: both partners purified
DCAF12 (Δ1–78) = molecular target: T1, DCAF12 (Δ1–78) (human, UniProt Q5T6F0 79-453); test: fluorescence polarisation; direct binding; protein titrated from 4 µM in two-fold steps against 20 nM FITC peptide; 20 mM Tris pH 7.5, 150 mM NaCl, 5% glycerol, 0.5 mM TCEP, 0.01% Triton; 45 min at room temperature
T1 construct: DDB1- and CUL4-associated factor 12 (DCAF12), human, residues 79-453 (Δ1-78); also called DCAF12:79-453aa; N-terminally truncated DCAF12; source: Sf9 (baculovirus, pFBOH-MHL), purified (TALON beads, Superdex S200 26/60)

DDB1–DCAF12 complex = DDB1–DCAF12 complex (human, UniProt Q5T6F0 1-453; Q5T6F0 1-453); test: as above
[1] = molecular target: T2, biotinylated DCAF12 (Δ1–78) (human, UniProt Q5T6F0 79-453, biotin); test: SPR; biotinylated DCAF12 (Δ1–78) immobilised (~3,200 RU) on a streptavidin chip, Biacore 8K+; peptides injected, 8-point two-fold series from 1 µM; 10 mM HEPES pH 7.4, 150 mM NaCl, 3 mM EDTA, 0.005% P20, 5% glycerol, 2% DMSO; 15 °C; 1:1 Langmuir fit
T2 construct: DDB1- and CUL4-associated factor 12 (DCAF12), human, residues 79-453 (Δ1-78); also called DCAF12:79-453aa; DCAF12 Δ1–78 (pFBD-BirA); source: Sf9 (pFBD-BirA vector), purified (TALON beads, Superdex S200 26/60)

Row | Binder | Kd (DCAF12 (Δ1–78)) | Kd (DDB1–DCAF12 complex) | Kd [1]
1 | B1 | 370 nM | 80 nM | –
2 | B2 | – | – | 60 nM
3 | B3 | – | – | 161 nM
4 | B4 | 520 nM | 180 nM | –
